This is an account of results in patent publication US9480726B2, “Leukotoxin E/D as a new anti-inflammatory agent and microbicide” (New York University, priority 2011, dated 2016).

Data set [1] deals with CCR5^+ Jurkat cells. Kind of data set: Blocking of LukE/D cytotoxicity by CCR5 antagonists, antibodies and ligands, CellTiter. Type of data set: cell-based, human. To be noted: CCR5^+ Jurkat preincubated 30 minutes, then LukE/D, read 1 hour post-intoxication. As to the method: One hour post-intoxication, the viability of the cells was determined by CellTiter. […] One hour post-intoxication, the viability of the cells was determined by CellTiter. Results represent the average of triplicate samples±S.D.
To determine if targeting CCR5 blocks LukE/D, the effect of several CCR5 antagonist and ligands on the ability of LukE/D to kill CCR5^+ cells was evaluated. […] In addition, the potential of monoclonal antibodies directed against CCR5 to protect cells from LukE/D cytotoxicity was also evaluated following the experimental protocol described for the CCR5 antagonist. […] Lastly, the potential inhibitory effect of natural ligands of CCR5 was also evaluated. […] Collectively, these findings indicate that the potent cytotoxic activity of LukE/D could be blocked by employing CCR5 antagonist and/or ligands.

Data set [2] concerns primary human dendritic cells. Kind of data set: LukE/D cytotoxicity towards primary phagocytes, percent death by flow cytometry. To be noted: 1 hour post-intoxication. As to the method:
(§1) Cells were then stained with an anti-CCR5 antibody and a viability dye prior analysis by flow cytometry. […] One hour post-intoxication, the percent death was determined by flow cytometry.
(§2) In addition to T lymphocytes, the cytotoxic activity of LukE/D towards primary human macrophages and dendritic cells was also evaluated.

The subject of data set [3] is primary human macrophages. The description is as above. To be noted: 1 hour post-intoxication. As to the method:
as §1, §2

In data set [4] the test system is Primary human T lymphocytes from CCR5^+ donor. Description: LukE/D intoxication of primary T lymphocytes, viability by flow cytometry. Type of data set: cell-based. To be noted: 5.4% in media treated cells. As to the method:
as §1
(§3) If CCR5 is the receptor of LukE/D, then primary host cells that their surfaces are decorated with CCR5 (e.g., T lymphocytes, macrophages, natural killer cells, dendritic cells, etc.) will be susceptible to LukE/D mediated cell death. To investigate this in more detail, primary human peripheral blood mononuclear cells (PBMC) were isolated from a wild type CCR5 (CCR5^+) donor and a Δ32CCR5 (CCR5^−) donor and the T lymphocytes expanded followed by intoxication with LukE/D and the viability of the cells determined by flow cytometry.

In data set [5] the test system is CCR5^+ Jurkat cells. Kind of data set: LukE/D pore formation, ethidium bromide incorporation and microscopy. Type of data set: cell-based, human. As to the method: Binding of the toxin to the plasma membrane of the cells was monitored via flow cytometry. […] Pore formation was measured over-time by monitoring ethidium bromide incorporation. […] Intoxicated cells were monitored by light (top panels) and by fluorescence microscopy to determine ethidium bromide uptake. Representative images are shown.

For data set [6], the system named is parental CCR5^− Jurkat cells. Description: Binding of GFP-fused LukE/D toxin to plasma membrane, flow cytometry. Also noted: species or system human.
Protocol: (§6) To elucidate the mechanism by which LukE/D utilizes CCR5 to target and kill host cells, Jurkat (CCR5^−) and CCR5^+ Jurkat (CCR5^+) cells were incubated with a GFP-fused LukE/D toxin (^GFPLukE/D) and binding of the fluorescent toxin to the plasma membrane of the cells monitored by flow cytometry.
Data set [7] has as its system PM1. Description: LukE/D cytotoxicity, cell viability by CellTiter. Type of data set: cell-based, human. As to conditions: PM1 lymphocyte cell line. How it is done:
(§4) Cytotoxicity was determined by a cell viability assay where indicated human immune cells lines were intoxicated with different concentrations of an equimolar mixture of LukE+LukD (LukE/D). Cell viability was monitored 1 hour post-intoxication using CellTiter, where cells treated with medium were set at 100% viable. Results represent the average of triplicate samples±S.D. FIG. 2B depicts that LukE/D kills Hut cell but not other human T lymphocyte-like cell lines. Indicated cell lines were intoxicated with different concentrations of an equimolar mixture of LukE+LukD (LukE/D) and cell viability monitored as in FIG. 2A. Results represent the average of triplicate samples±S.D.
(§5) One mechanism by which LukE/D could be blocked is by inhibiting the interaction of the toxin with its receptor. As an initial strategy to understand how LukE/D interact with host cells, a collection of human immune cell lines were incubated (“intoxicated”) with different concentrations of either individual subunits (i.e., LukE or LukD) or an equimolar mixture of LukE+LukD (LukE/D). […] Upon further investigation, it was discovered that the Hut cells employed the experiments described above have been engineered to over-express the CC-chemokine receptor 5 (CCR5), a receptor for the chemokines MIP-1α, MIP-1β, and RANTES.

The test system of data set [8] is Jurkat cells. Kind of data set: LukE/D cytotoxicity, cell viability by CellTiter. Type of data set: cell-based, human. As to conditions: 1 hour post-intoxication. How it is done: as §4, §5
Data set [9] relates to Hut cells (T lymphocyte-like cells). Kind of data set: LukE/D cytotoxicity, cell viability by CellTiter. Type of data set: cell-based, human. As to conditions: Hut cells (over-express CCR5), 1 hour post-intoxication. How it is done:
as §4, §5

Data set [10] deals with H9. Description: LukE/D cytotoxicity, cell viability by CellTiter. Type of data set: cell-based, human. As to conditions: H9 lymphocyte cell line. How it is done:
as §4, §5

Data set [11] deals with T lymphocytes from the Δ32CCR5 donor. Description: LukE/D intoxication of primary T lymphocytes, viability by flow cytometry. As to conditions: T lymphocytes of Δ32CCR5 (CCR5^−) donor. How it is done: as §1, §3
The test system of data set [12] is THP1 cells (human monocytes). Kind of data set: LukE/D cytotoxicity, cell viability by CellTiter. Format: cell-based. To be noted: 1 hour post-intoxication. How it is done:
as §4, §5

Data set [13] relates to CCR5^+ Jurkat. Kind of data set: LukE/D cytotoxicity towards CCR5-transduced cells, CellTiter. Type of data set: cell-based, human. As to conditions: Jurkat transduced with CCR5 cDNA, 1 hour post-intoxication. An excerpt: FIG. 3 illustrates that the chemokine receptor CCR5 is necessary and sufficient to renders mammalian cells susceptible to LukE/D mediated cytotoxicity. Parental Jurkat (top, left) and GHOST cells (bottom, left) or these cells transduced with a CCR5 cDNA (Jurkat CCR5^+, top/right; GHOST CCR5^+, bottom/right), were intoxicated with LukE, LukD, or equimolar mixture of LukE+LukD (LukE/D). One hour post-intoxication cell viability was monitored with CellTiter, where cells treated with medium were set at 100% viable. Results represent the average of triplicate samples±S.D.
To directly determine the contribution of CCR5 for the ability of LukE/D to target and kill host cells, CCR5 was introduced into Jurkat cells by viral transduction of the CCR5 cDNA resulting in CCR5^+ Jurkat. Jurkat and CCR5^+ Jurkat cells were subsequently intoxicated with different concentrations of either individual subunits (i.e., LukE or LukD) or equimolar mixtures of LukE+LukD (LukE/D).

The subject of data set [14] is CCR5^+ Jurkat cells. Description: Binding of GFP-fused LukE/D toxin to plasma membrane, flow cytometry. Also on record: species or system human.
Protocol: as §6

With `Cc1ccc(-c2ccc3c(c2)C=C(C(=O)Nc2ccc(C[N+](C)(C)C4CCOCC4)cc2)CCC3)cc1.[Cl-]` [TAK-779], the “blocking of LukE/D mediated cytotoxicity” value in [1] was “potently blocked”.
Take `COC[C@@H](c1ccc(C(F)(F)F)cc1)N1CCN(C2(C)CCN(C(=O)c3c(C)ncnc3C)CC2)C[C@@H]1C` [Vicriviroc]: in data set [1], the “blocking of LukE/D mediated cytotoxicity” value was “potently blocked”.
With “LukD: S. aureus Leukocidin D protein subunit, SEQ ID NOs: 12-22”, the “cytotoxic activity (killing)” value in data set [2] and in data set [3] was “not LukD potently killed” each time.
On to LukE/D, for which the “cytotoxic activity (killing)” value in data set [2] and in data set [3] was “potently killed” each time. In [4], the cell death is listed as 34%. In addition, in data set [5] (ethidium bromide incorporation over time), the “pore formation in plasma membrane” value is on record as “forms pores”. Moreover, the cell swelling result in data set [5] (light and fluorescence microscopy) is “associated with cell swelling”. Moreover, the “binding of toxin to plasma membrane” value is reported as “not to the parental CCR5^− Jurkat cells” in data set [6] and “binds” in [14] (GFP-fused LukE/D, CCR5^+ Jurkat). The cytotoxicity entry is “only the Hut cells were susceptible” in data set [7]; “not towards Jurkat cells” in data set [8]; “exhibits cytotoxicity” in data set [9]; “only the Hut cells were susceptible” in data set [10]; “exhibits cytotoxicity” in data set [12]. The LukE/D mediated cytotoxicity entry in data set [11] is “highly refractory”. The LukE/D mediated toxicity result in data set [13] is “susceptible”.
With Maraviroc [reference compound], in data set [5] (pre-incubation with Maraviroc, ethidium bromide incorporation), the “blocking of LukE/D mediated pore formation” value is listed as “potently blocked”. Also, the “blocking of LukE/D cell swelling” value in [5] (pre-incubation with Maraviroc, microscopy) is recorded as “fully blocked”. The “inhibition of LukE/D binding to cells” value in data set [14] (CCR5^+ Jurkat pre-incubated with Maraviroc, then GFP-labeled LukE/D) is recorded as “potently inhibited”.
On to “RANTES: natural ligand (chemokine) of CCR5”, for which, in [1], the “blocking of LukE/D mediated cytotoxicity” value was “potently inhibit”.

B1: MIP-1β: natural ligand (chemokine) of CCR5 (protein)
chain: APMGSDPPTACCFSYTARKLPRNFVVDYYETSSLCSQPAVVFQTKRSKQVCADPSESWVQEYVYDLELN
For B1, the “blocking of LukE/D mediated cytotoxicity” value in data set [1] is given as “potently inhibit”.
